According to US20200138870A1, “RECREATION OF PANCREATIC NICHE ALLOWS FOR NOVEL METHODS FOR HUMAN, MATURE BETA DERIVATION FROM PLURIPOTENT STEM CELLS” (Baylor College of Medicine, priority 2016, published 2020):

Columns and labels:
Type in all cases: cell-based, human
hESC-derived EPs = test: Transwell migration and chemotaxis assay; conditions: 100, 500 ng/ml WNT5A in bottom well
Protocol: Transwell assays were performed using FluoroBlock Insert, […] pore size (Corning). The bottom 24 wells and the insert of transwell were coated with Geltrex to retained cells. At the experiment day, 1.5×10^5 hESC-derived EPs were seeded in each well at the transwell insert in B27 media with 10 μM Y-27632 and the well bottoms were replenished with either B27 media as control, B27 media+100 or 500 ng/ml WNT5A, or conditional media from Wk9.1, 17.5h and 20.1. After one week, the cell attached to the bottom wells were stained with Dapi and were counted.

Smad = test: Dual-pathway multicolor luciferase assay, Smad reporter; conditions: 500 ng/ml WNT5A, at 36 and 48h
Text: The dual-pathway luciferase reporter vector was generated using the GoldenBraid2.0 Assembly Platform (Sarrion-Perdigones et al., 2011; Sarrion-Perdigones et al., 2013). Briefly, transcriptional units comprising the promoter elements, the CDS of the corresponding luciferase and the bovine growth hormone terminator were first assembled, and then these were latter combined in successive rounds of assembly to build the multigenic vector used in this assay. For the multicolor luciferase assay, H1-derived EPs were first dissociated into 96-well plates using method previously described and incubated overnight to allow cell attachment. […] At the determined harvesting point, culture media was removed and wells were washed with PBS. […] 10 μL of LARII reagent was added with the built-in injectors and after 2 seconds, the total light and the BP filtered light emitted by the FLuc and RedF mixture were measured for 1 second. Finally, 15 μL of Stop & Glo® reagent were injected and after 4 seconds the emitted light by Renilla luciferase was measured. The activity corresponding to FLuc and RedF that were simultaneously measured after the LARII reagent was added were calculated according to the method proposed by Nakayima et al (Nakajima et al., 2005) that is adjusted to this particular assay and explained in FIG. 7D.

EPs = test: Scratch assay (cell migration); conditions: 100 or 500 ng/ml WNT5A, 30h
Protocol: EPs were dissociated and seeded into 12 well-plate to reach 90% confluence before a scratch was made. 200 μl pipette tip was used to create a smooth scratch and followed by 3h of mitomycin C treatment. Cells were then washed thrice with PBS and B27 media with or without WNT5A was added. Pictures of the scratch wound were taken at 0, 6, 12, 18, 24 and 30h after scratch to observe cell migration. Pictures were analyzed by counting cells migrating into the gap using ImageJ.

- Smad activity (in words) (Smad): decreases
B1: WNT5A: secreted growth factor from the human pancreatic niche (R&D), used at 100 or 500 ng/ml (protein)
chain: IIGAQPLCSQLAGLSQGQKKLCHLYQDHMQYIGEGAKTGIKECQYQFRHRRWNCSTVDNTSVFGRVMQIGSRETAFTYAVSAAGVVNAMSRACREGELSTCGCSRAARPKDLPRDWLWGGCGDNIDYGYRFAKEFVDARERERIHAKGSYESARILMNLHNNEAGRRTVYNLADVACKCHGVSGSCSLKTCWLQLADFRKVGDALKEKYDSAAAMRLNSRGKLVQVNSRFNSPTTQDLVYIDPSPDYCVRNESTGSLGTQGRLCNKTSEGMDGCELMCCGRGYDQFKTVQTERCHCKFHWCCYVKCKKCTEIVDQFVCK
- chemoattractant activity on EP migration (in words) (hESC-derived EPs): does not act as a chemoattractant
- cell mobility in scratch assays (in words) (EPs): no increase in cell mobility
